Read-outs that look alike come from different tables or passages of the source.
Assays:
[1] = target: T7 RNA polymerase Y639L/H784A/K378R (LAR) (Bacteriophage T7) (UniProt P00573); conditions: 2'-OMe NTPs
[2] = target: T7 RNA polymerase Y639L/H784A/K378R (LAR) (Bacteriophage T7) (UniProt P00573); conditions: 15 mL 2'-OMe NTP transcription, 8 mM MgCl2, 2.5 mM MnCl2
[3] = target: T7 RNA polymerase Y639L/H784A/K378R (LAR) (Bacteriophage T7) (UniProt P00573); conditions: 2'-OMe NTP transcription; 2.1 ug/ml enzyme, 8 mM MgCl2, 2.5 mM MnCl2, 37 C; template made with 5' poly-A extended primer
[4] = target: T7 RNA polymerase P266L/Y639L/H784A/K378R (LLAR) (Bacteriophage T7) (UniProt P00573); conditions: 2'-OMe NTP transcription; at 2.6 ug/ml enzyme (130 at 11, 13 at 0.66, 8.3 at 0.16 ug/ml); template made with 5' poly-A extended primer

TAATACGACTCACTATAGGAGCCTTCCTCCGGANNNNNNNNNNNNNNNNNNNNNNNNNNNNNNNNNNNNNNNNTCCGGTTTCCCGAGCTT (double strand) [Template 6]
activity (% relative yield) ([1]; listed as Pool 2, relative to Pool 4): 88

TAATACGACTCACTATAGGGAGAATTCCGACCACAAGNNNNNNNNNNNNNNNNNNNNNNNNNNNNNNNNNNNNNNNNCATATGTGCGTCTACATGGATCCTCA (double strand) [Template 4]
activity (nmol transcript) [2]: 27.8

TAATACGACTCACTATAGGGAGAATTCCGACCAGAAGCTTNNNNNNNNNNNNNNNNNNNNNNNNNNNNNNNNNNNNNNNNCATATGTGCGTCTACATGGATCCTCA (double strand) [Template 1]
activity (nmol transcript) [2]: 18.7

TAATACGACTCACTATAGGGAGACAAGAATAAACGCTCAANNNNNNNNNNNNNNNNNNNNNNNNNNNNNNNNNNNNNNNNTTCGACAGGAGGCTCACAACAGGC (double strand) [Template 7]
activity (% relative yield) ([1]; listed as Pool 3, relative to Pool 4): 130

TAATACGACTCACTATAGGGAGAGACAAGCTTGGGTCNNNNNNNNNNNNNNNNNNNNNNNNNNNNNNNNNNNNNNNNAGAAGAGAAAGAGAAGTTAATTAAGGATCCTCAG (double strand) [Template 3]
activity (nmol transcript) [2]: 20.2

TAATACGACTCACTATAGGGAGAGCGGAAGCCGTGCTGGGGCCNNNNNNNNNNNNNNNNNNNNNNNNNNNNNNNNNNNNNNNNCATAACCCAGAGGTCGATGGATC (double strand) [Template 2]
activity (nmol transcript) [2]: 17.4

TAATACGACTCACTATAGGGCCTTGTAGCGTGCATTCTTGNNNNNNNNNNNNNNNNNNNNNNNNNNNNNNCTAACATACTCCGAATCTGTCGAA (double strand) [Template 5]
activity (% relative yield) ([1]; listed as Pool 1, relative to Pool 4): 80

TAATACGACTCACTATAGGGGAGTACAATAACCAGACATNNNNNNNNNNNNNNNNNNNNNNNNNNNNNNGGATCGTTACGACTAGCATCGATG (double strand) [Template 8]
activity (% relative yield) ([1]; listed as Pool 4 (reference)): 100

TAATACGACTCACTATAGGGGAGTACAATAACGTTCTCGNNNNNNNNNNNNNNNNNNNNNNNNNNNNNNGGATCGTTACGACTAGCATCGATG (double strand) [ARC2118 template library]
activity (% normalized yield) [3]: 100 | activity (% normalized yield) [4]: 65
